In patent publication US20250026849A1 (ARCELLX, published 2025):
Residue numbers refer to the chain shown, from its start.

B1: D-domain SEQ ID NO: 82 (designed binder)
chain: MGSWTEFASRLVAIRQRLQALGGSEAELAAFEKEIAAFESELQAYKGKGNPEVEELRYSAAIIRVMLQAYRHN
B2: D-domain SEQ ID NO: 83 (designed binder)
chain: B1 chain with T5S, A8D, S9Q, V12A, R15Y, Q19N, I62L
B3: D-domain SEQ ID NO: 84 (designed binder)
chain: B1 chain with T5V, A8H, S9N, V12S, R15S, Q16D, Q19G, I62L
B4: D-domain SEQ ID NO: 85 (designed binder)
chain: B1 chain with T5N, A8E, S9D, V12S, R15S, Q16A, Q19S, I62L
B5: D-domain SEQ ID NO: 86 (designed binder)
chain: B1 chain with T5V, A8E, S9Y, R15F, Q16D, S59Q, I62L
B6: D-domain SEQ ID NO: 87 (designed binder)
chain: B1 chain with T5V, A8Q, S9G, V12G, R15H, Q16E, I62L, M66F
B7: D-domain SEQ ID NO: 88 (designed binder)
chain: MGSWYEFSMRLSAIWERLHALGGSEAELAAFEKEIAAFESELQAYKGKGNPEVEELRYQAALIRFYLQAYRHN
B8: D-domain SEQ ID NO: 89 (designed binder)
chain: B7 chain with Y5T, M9Q, S12G, W15S, H19Y, Q59S, Y66M
B9: D-domain SEQ ID NO: 90 (designed binder)
chain: B1 chain with A8H, S9D, V12E, R15T, Q16H, Q19N, I62L, I63L, M66F
B10: D-domain SEQ ID NO: 91 (designed binder)
chain: B1 chain with A8E, S9H, V12E, R15A, Q16G, Q19N, I62L, V65F, M66W
B11: D-domain SEQ ID NO: 92 (designed binder)
chain: B1 chain with S9N, V12E, R15N, Q16A, Q19H, Y58F, I62L, M66Y
B12: D-domain SEQ ID NO: 93 (designed binder)
chain: B7 chain with Y5E, S8D, M9R, S12Y, W15A, E16R, H19E, F65V, Y66W
B13: D-domain SEQ ID NO: 94 (designed binder)
chain: B7 chain with Y5I, S8H, M9Q, S12E, W15V, E16T, H19E, F65V, Y66F
B14: D-domain SEQ ID NO: 95 (designed binder)
chain: MGSWSEFYDRLKAIADRLHALGGSEAELAAFEKEIAAFESELQAYKGKGNPEVEELRTEAAIIRVYLQAYRHN
B15: D-domain SEQ ID NO: 96 (designed binder)
chain: B14 chain with S5W, Y8E, K12S, A15M, D16E, T58Y, E59R
B16: D-domain SEQ ID NO: 97 (designed binder)
chain: B14 chain with S5V, Y8E, D9E, K12A, D16T, T58W, E59R
B17: D-domain SEQ ID NO: 99 (designed binder)
chain: B14 chain with S5T, Y8R, K12G, A15Y, D16H, H19D, T58Y, E59Q
B18: D-domain SEQ ID NO: 100 (designed binder)
chain: MGSWVEFYHRLEAIRYRLSALGGSEAELAAFEKEIAAFESELQAYKGKGNPEVEELRYVAAVIRYRLQAYRHN
B19: D-domain SEQ ID NO: 101 (designed binder)
chain: B18 chain with H9D, V59I
B20: D-domain SEQ ID NO: 103 (designed binder)
chain: B1 chain with T5E, A8S, S9E, V12E, R15S, Q16I, Q19R, Y58V, M66W
B21: D-domain SEQ ID NO: 104 (designed binder)
chain: B14 chain with Y8S, K12H, A15S, H19Q, T58I, E59Q, Y66W
B22: D-domain SEQ ID NO: 111 (designed binder)
chain: MGSWTEFDHRLGAIWERLVALGGSEAELAAFEKEIAAFESELQAYKGKGNPEVEELRFHAAIIRIFLQAYRHN
B23: D-domain SEQ ID NO: 112 (designed binder)
chain: B22 chain with D8H, H9V, G12S, E16D, F66V
B24: D-domain SEQ ID NO: 113 (designed binder)
chain: B22 chain with T5N, H9N, G12Q, E16D, V19H, I62M, F66T
B25: D-domain SEQ ID NO: 114 (designed binder)
chain: B22 chain with D8H, H9E, G12Q, E16F, V19H, H59R, I65L, F66Y
B26: D-domain SEQ ID NO: 120 (designed binder)
chain: MGSWHEFYYRLEAIEQRLHALGGSEAELAAFEKEIAAFESELQAYKGKGNPEVETLRFDAALIRIYLQAYRHN
B27: D-domain SEQ ID NO: 121 (designed binder)
chain: B26 chain with H5S, Y8E, Y9E, E12A, E15G, Q16S, H19F
B28: D-domain SEQ ID NO: 185 (designed binder)
chain: MGSWVEFWDRLGAIRERLQALGGSEAELAAFEKEIAAFESELQAYKGKGNPEVEKLRYTAAAIRHYLQAYRHN
B29: D-domain SEQ ID NO: 193 (designed binder)
chain: B28 chain with Q19E, T59V, A62V, Y66R
B30: D-domain SEQ ID NO: 194 (designed binder)
chain: B28 chain with K55E, Y58A, T59S, H65I, Y66A
B31: D-domain SEQ ID NO: 195 (designed binder)
chain: B28 chain with E16D, Q19D, K55E, Y58N, A62Y, H65T, Y66F
B32: D-domain SEQ ID NO: 196 (designed binder)
chain: B28 chain with V5S, D9V, E16D, Q19D, K55A, Y58V, A62Q
B33: D-domain SEQ ID NO: 197 (designed binder)
chain: B28 chain with V5S, D9V, Q19D, A62T, H65R, Y66F
notes: also called bc40
B34: D-domain SEQ ID NO: 202 (designed binder)
chain: B28 chain with V5S, G12T, E16V, Q19D, A62H, H65K, Y66F
B35: D-domain SEQ ID NO: 204 (designed binder)
chain: B28 chain with V5F, G12A, E16D, Q19E, K55D, T59V, A62K, H65V, Y66R
B36: D-domain SEQ ID NO: 205 (designed binder)
chain: B28 chain with V5T, D9V, G12N, E16D, Q19E, K55D, Y58H, A62I, H65N
B37: D-domain SEQ ID NO: 206 (designed binder)
chain: B28 chain with D9H, R15Y, E16D, Q19E, K55E, Y58R, A62L, H65Q, Y66T
B38: D-domain SEQ ID NO: 207 (designed binder)
chain: B28 chain with D9N, R15Y, E16D, Q19E, Y58H, A62V, H65L
B39: D-domain SEQ ID NO: 208 (designed binder)
chain: MGSWSEFWERLEAIYDRLYALGGSEAELAAFEKEIAAFESELQAYKGKGNPEVEELRRTAATIRSFLQAYRHN
B40: D-domain SEQ ID NO: 209 (designed binder)
chain: B39 chain with S5E, W8D, E9N, Y15F, Y19E, R58E, T59F, S65I, F66T
B41: D-domain SEQ ID NO: 214 (designed binder)
chain: MGSWTEFWARLYAIEMRLFALGGSEAELAAFEKEIAAFESELQAYKGKGNPEVEHLRRVAALIREQLQAYRHN

Biological target: T1, BCMA (Homo sapiens (Human), UniProt Q02223 1-54, limits assumed)
T1 sequence: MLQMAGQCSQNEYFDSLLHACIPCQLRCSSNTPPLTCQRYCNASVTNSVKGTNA
Assay: ELISA, format not described
Design: unit not given here

| Binder | ELISA_avg |
| --- | --- |
| B1 | 7.99 |
| B2 | 7.72 |
| B3 | 7.36 |
| B4 | 4.09 |
| B5 | 7.63 |
| B6 | 3.83 |
| B7 | 7.12 |
| B8 | 4.15 |
| B9 | 5.79 |
| B10 | 6.34 |
| B11 | 6.42 |
| B12 | 8.85 |
| B13 | 8 |
| B14 | 8.21 |
| B15 | 10.4 |
| B16 | 16.3 |
| B17 | 6.7 |
| B18 | 7.8 |
| B19 | 5.64 |
| B20 | 11.3 |
| B21 | 6.37 |

| Binder | ELISA_avg |
| --- | --- |
| B22 | 9.54 |
| B23 | 23.6 |
| B24 | 9.87 |
| B25 | 12.1 |
| B26 | 3.73 |
| B27 | 4.85 |
| B28 | 5.22 |
| B29 | 4.18 |
| B30 | 3.07 |
| B31 | 16 |
| B32 | 23.5 |
| B33 | 7.56 |
| B34 | 16.1 |
| B35 | 12.8 |
| B36 | 12.5 |
| B37 | 19.9 |
| B38 | 14.6 |
| B39 | 18.8 |
| B40 | 3.93 |
| B41 | 12.5 |
